From patent US20230357348A1 (AstraZeneca / MedImmune, published 2023)
Starred links: 1 amine or outer side, 2 acyl side, 3 side chain; linkers in the order of their positions; H or OH if unused. Non-standard residues stand in square brackets, D forms with d. Groups on a side chain read outwards from the residue. No end group written: not given here. *: point of attachment. C20 diacid = O=C(O)CCCCCCCCCCCCCCCCCCC(=O)*; C18 diacid = O=C(O)CCCCCCCCCCCCCCCCC(=O)*; γGlu = O=C(O)[C@H](CCC(=O)[*:2])N[*:1]; αMeF = C[C@](N)(Cc1ccccc1)C(=O)O; AEEA = NCCOCCOCC(=O)O; Aib = CC(C)(N)C(=O)O

B1: Peptide 24 (peptide)
peptide: H[Aib]HGS[αMeF]TSDVSK[αMeF]LDSK([AEEA-AEEA-γGlu-C18 diacid])AAQD[αMeF]VQ[Aib]IANT-NH2
modifications: N-terminus assumed
SMILES: CC[C@H](C)[C@H](NC(=O)C(C)(C)NC(=O)[C@H](CCC(N)=O)NC(=O)[C@@H](NC(=O)[C@](C)(Cc1ccccc1)NC(=O)[C@H](CC(=O)O)NC(=O)[C@H](CCC(N)=O)NC(=O)[C@H](C)NC(=O)[C@H](C)NC(=O)[C@H](CCCCNC(=O)COCCOCCNC(=O)COCCOCCNC(=O)CC[C@H](NC(=O)CCCCCCCCCCCCCCCCC(=O)O)C(=O)O)NC(=O)[C@H](CO)NC(=O)[C@H](CC(=O)O)NC(=O)[C@H](CC(C)C)NC(=O)[C@](C)(Cc1ccccc1)NC(=O)[C@H](CCCCN)NC(=O)[C@H](CO)NC(=O)[C@@H](NC(=O)[C@H](CC(=O)O)NC(=O)[C@H](CO)NC(=O)[C@@H](NC(=O)[C@](C)(Cc1ccccc1)NC(=O)[C@H](CO)NC(=O)CNC(=O)[C@H](Cc1c[nH]cn1)NC(=O)C(C)(C)NC(=O)[C@@H](N)Cc1c[nH]cn1)[C@@H](C)O)C(C)C)C(C)C)C(=O)N[C@@H](C)C(=O)N[C@@H](CC(N)=O)C(=O)N[C@H](C(N)=O)[C@@H](C)O
B2: Peptide 19 (peptide)
peptide: H[Aib]HGS[αMeF]TSDVSK[αMeF]LDSK([AEEA-AEEA-γGlu-γGlu-C18 diacid])AARD[αMeF]VQ[Aib]IANT-NH2
modifications: N-terminus assumed
SMILES: CC[C@H](C)[C@H](NC(=O)C(C)(C)NC(=O)[C@H](CCC(N)=O)NC(=O)[C@@H](NC(=O)[C@](C)(Cc1ccccc1)NC(=O)[C@H](CC(=O)O)NC(=O)[C@H](CCCNC(=N)N)NC(=O)[C@H](C)NC(=O)[C@H](C)NC(=O)[C@H](CCCCNC(=O)COCCOCCNC(=O)COCCOCCNC(=O)CC[C@H](NC(=O)CC[C@H](NC(=O)CCCCCCCCCCCCCCCCC(=O)O)C(=O)O)C(=O)O)NC(=O)[C@H](CO)NC(=O)[C@H](CC(=O)O)NC(=O)[C@H](CC(C)C)NC(=O)[C@](C)(Cc1ccccc1)NC(=O)[C@H](CCCCN)NC(=O)[C@H](CO)NC(=O)[C@@H](NC(=O)[C@H](CC(=O)O)NC(=O)[C@H](CO)NC(=O)[C@@H](NC(=O)[C@](C)(Cc1ccccc1)NC(=O)[C@H](CO)NC(=O)CNC(=O)[C@H](Cc1c[nH]cn1)NC(=O)C(C)(C)NC(=O)[C@@H](N)Cc1c[nH]cn1)[C@@H](C)O)C(C)C)C(C)C)C(=O)N[C@@H](C)C(=O)N[C@@H](CC(N)=O)C(=O)N[C@H](C(N)=O)[C@@H](C)O
B3: Peptide 23 (peptide)
peptide: H[Aib]HGS[αMeF]TSDVSK[αMeF]LDSK([AEEA-AEEA-γGlu-C18 diacid])AAQD[αMeF]VESIANT-NH2
modifications: N-terminus assumed
SMILES: CC[C@H](C)[C@H](NC(=O)[C@H](CO)NC(=O)[C@H](CCC(=O)O)NC(=O)[C@@H](NC(=O)[C@](C)(Cc1ccccc1)NC(=O)[C@H](CC(=O)O)NC(=O)[C@H](CCC(N)=O)NC(=O)[C@H](C)NC(=O)[C@H](C)NC(=O)[C@H](CCCCNC(=O)COCCOCCNC(=O)COCCOCCNC(=O)CC[C@H](NC(=O)CCCCCCCCCCCCCCCCC(=O)O)C(=O)O)NC(=O)[C@H](CO)NC(=O)[C@H](CC(=O)O)NC(=O)[C@H](CC(C)C)NC(=O)[C@](C)(Cc1ccccc1)NC(=O)[C@H](CCCCN)NC(=O)[C@H](CO)NC(=O)[C@@H](NC(=O)[C@H](CC(=O)O)NC(=O)[C@H](CO)NC(=O)[C@@H](NC(=O)[C@](C)(Cc1ccccc1)NC(=O)[C@H](CO)NC(=O)CNC(=O)[C@H](Cc1c[nH]cn1)NC(=O)C(C)(C)NC(=O)[C@@H](N)Cc1c[nH]cn1)[C@@H](C)O)C(C)C)C(C)C)C(=O)N[C@@H](C)C(=O)N[C@@H](CC(N)=O)C(=O)N[C@H](C(N)=O)[C@@H](C)O
B4: Peptide 22 (peptide)
peptide: H[Aib]HGS[αMeF]TSDVSK[αMeF]LDSK([AEEA-AEEA-γGlu-γGlu-C20 diacid])AAQD[αMeF]VESIANT-NH2
modifications: N-terminus assumed
SMILES: CC[C@H](C)[C@H](NC(=O)[C@H](CO)NC(=O)[C@H](CCC(=O)O)NC(=O)[C@@H](NC(=O)[C@](C)(Cc1ccccc1)NC(=O)[C@H](CC(=O)O)NC(=O)[C@H](CCC(N)=O)NC(=O)[C@H](C)NC(=O)[C@H](C)NC(=O)[C@H](CCCCNC(=O)COCCOCCNC(=O)COCCOCCNC(=O)CC[C@H](NC(=O)CC[C@H](NC(=O)CCCCCCCCCCCCCCCCCCC(=O)O)C(=O)O)C(=O)O)NC(=O)[C@H](CO)NC(=O)[C@H](CC(=O)O)NC(=O)[C@H](CC(C)C)NC(=O)[C@](C)(Cc1ccccc1)NC(=O)[C@H](CCCCN)NC(=O)[C@H](CO)NC(=O)[C@@H](NC(=O)[C@H](CC(=O)O)NC(=O)[C@H](CO)NC(=O)[C@@H](NC(=O)[C@](C)(Cc1ccccc1)NC(=O)[C@H](CO)NC(=O)CNC(=O)[C@H](Cc1c[nH]cn1)NC(=O)C(C)(C)NC(=O)[C@@H](N)Cc1c[nH]cn1)[C@@H](C)O)C(C)C)C(C)C)C(=O)N[C@@H](C)C(=O)N[C@@H](CC(N)=O)C(=O)N[C@H](C(N)=O)[C@@H](C)O
B5: Peptide 18 (peptide)
peptide: H[Aib]HGS[αMeF]TSDVSK[αMeF]LDSK([AEEA-AEEA-γGlu-C18 diacid])AARD[αMeF]VQSIANT-NH2
modifications: N-terminus assumed
SMILES: CC[C@H](C)[C@H](NC(=O)[C@H](CO)NC(=O)[C@H](CCC(N)=O)NC(=O)[C@@H](NC(=O)[C@](C)(Cc1ccccc1)NC(=O)[C@H](CC(=O)O)NC(=O)[C@H](CCCNC(=N)N)NC(=O)[C@H](C)NC(=O)[C@H](C)NC(=O)[C@H](CCCCNC(=O)COCCOCCNC(=O)COCCOCCNC(=O)CC[C@H](NC(=O)CCCCCCCCCCCCCCCCC(=O)O)C(=O)O)NC(=O)[C@H](CO)NC(=O)[C@H](CC(=O)O)NC(=O)[C@H](CC(C)C)NC(=O)[C@](C)(Cc1ccccc1)NC(=O)[C@H](CCCCN)NC(=O)[C@H](CO)NC(=O)[C@@H](NC(=O)[C@H](CC(=O)O)NC(=O)[C@H](CO)NC(=O)[C@@H](NC(=O)[C@](C)(Cc1ccccc1)NC(=O)[C@H](CO)NC(=O)CNC(=O)[C@H](Cc1c[nH]cn1)NC(=O)C(C)(C)NC(=O)[C@@H](N)Cc1c[nH]cn1)[C@@H](C)O)C(C)C)C(C)C)C(=O)N[C@@H](C)C(=O)N[C@@H](CC(N)=O)C(=O)N[C@H](C(N)=O)[C@@H](C)O
B6: Peptide 20 (peptide)
peptide: H[Aib]HGS[αMeF]TSDVSK[αMeF]LDSK([AEEA-AEEA-γGlu-γGlu-C18 diacid])AARD[αMeF]VE[Aib]IANT-NH2
modifications: N-terminus assumed
SMILES: CC[C@H](C)[C@H](NC(=O)C(C)(C)NC(=O)[C@H](CCC(=O)O)NC(=O)[C@@H](NC(=O)[C@](C)(Cc1ccccc1)NC(=O)[C@H](CC(=O)O)NC(=O)[C@H](CCCNC(=N)N)NC(=O)[C@H](C)NC(=O)[C@H](C)NC(=O)[C@H](CCCCNC(=O)COCCOCCNC(=O)COCCOCCNC(=O)CC[C@H](NC(=O)CC[C@H](NC(=O)CCCCCCCCCCCCCCCCC(=O)O)C(=O)O)C(=O)O)NC(=O)[C@H](CO)NC(=O)[C@H](CC(=O)O)NC(=O)[C@H](CC(C)C)NC(=O)[C@](C)(Cc1ccccc1)NC(=O)[C@H](CCCCN)NC(=O)[C@H](CO)NC(=O)[C@@H](NC(=O)[C@H](CC(=O)O)NC(=O)[C@H](CO)NC(=O)[C@@H](NC(=O)[C@](C)(Cc1ccccc1)NC(=O)[C@H](CO)NC(=O)CNC(=O)[C@H](Cc1c[nH]cn1)NC(=O)C(C)(C)NC(=O)[C@@H](N)Cc1c[nH]cn1)[C@@H](C)O)C(C)C)C(C)C)C(=O)N[C@@H](C)C(=O)N[C@@H](CC(N)=O)C(=O)N[C@H](C(N)=O)[C@@H](C)O
B7: Peptide 21 (peptide)
peptide: H[Aib]HGS[αMeF]TSDVSK[αMeF]LDSK([γGlu-C18 diacid])AAQD[αMeF]VESIANT-NH2
modifications: N-terminus assumed
SMILES: CC[C@H](C)[C@H](NC(=O)[C@H](CO)NC(=O)[C@H](CCC(=O)O)NC(=O)[C@@H](NC(=O)[C@](C)(Cc1ccccc1)NC(=O)[C@H](CC(=O)O)NC(=O)[C@H](CCC(N)=O)NC(=O)[C@H](C)NC(=O)[C@H](C)NC(=O)[C@H](CCCCNC(=O)CC[C@H](NC(=O)CCCCCCCCCCCCCCCCC(=O)O)C(=O)O)NC(=O)[C@H](CO)NC(=O)[C@H](CC(=O)O)NC(=O)[C@H](CC(C)C)NC(=O)[C@](C)(Cc1ccccc1)NC(=O)[C@H](CCCCN)NC(=O)[C@H](CO)NC(=O)[C@@H](NC(=O)[C@H](CC(=O)O)NC(=O)[C@H](CO)NC(=O)[C@@H](NC(=O)[C@](C)(Cc1ccccc1)NC(=O)[C@H](CO)NC(=O)CNC(=O)[C@H](Cc1c[nH]cn1)NC(=O)C(C)(C)NC(=O)[C@@H](N)Cc1c[nH]cn1)[C@@H](C)O)C(C)C)C(C)C)C(=O)N[C@@H](C)C(=O)N[C@@H](CC(N)=O)C(=O)N[C@H](C(N)=O)[C@@H](C)O

biological target: human GLP-1 receptor (hGLP-1R) (human, UniProt P43220 24-463); test: cell-based or functional assay

| hGLP-1R EC50 (pM) | Binder |
| --- | --- |
| 82.8 pM | B1 |
| 38.3 pM | B2 |
| 726 pM | H[Aib]HGS[αMeF]TSDVSK[αMeF]LDSK([AEEA-AEEA-γGlu-γGlu-C20 diacid])AAQD[αMeF]VQ[Aib]IANT-NH2 [Peptide 25] |
| 266 pM | B3 |
| 1230 pM | B4 |
| 20.5 pM | B5 |
| 152 pM | B6 |
| 378 pM | B7 |

biological target: human glucagon receptor (hGCGR) (human, UniProt P47871 26-477); test: cell-based or functional assay
Sequence (P47871 26-477): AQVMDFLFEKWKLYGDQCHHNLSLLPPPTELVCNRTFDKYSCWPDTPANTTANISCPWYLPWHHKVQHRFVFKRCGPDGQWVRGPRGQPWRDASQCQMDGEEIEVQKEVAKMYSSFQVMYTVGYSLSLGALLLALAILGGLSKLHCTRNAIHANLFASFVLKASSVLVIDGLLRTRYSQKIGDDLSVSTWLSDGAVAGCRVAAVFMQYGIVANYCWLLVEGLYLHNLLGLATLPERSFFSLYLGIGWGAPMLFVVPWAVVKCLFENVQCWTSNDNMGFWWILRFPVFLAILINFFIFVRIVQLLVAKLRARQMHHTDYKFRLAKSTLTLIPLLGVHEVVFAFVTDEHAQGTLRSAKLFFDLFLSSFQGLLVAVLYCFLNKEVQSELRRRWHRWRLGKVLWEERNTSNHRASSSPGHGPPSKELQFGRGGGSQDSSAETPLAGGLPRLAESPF

| hGluc-R EC50 (pM) | Binder |
| --- | --- |
| 101 pM | B1 |
| 133 pM | B2 |
| 1310 pM | H[Aib]HGS[αMeF]TSDVSK[αMeF]LDSK([AEEA-AEEA-γGlu-γGlu-C20 diacid])AAQD[αMeF]VQ[Aib]IANT-NH2 [Peptide 25] |
| 321 pM | B3 |
| 2720 pM | B4 |
| 122 pM | B5 |
| 136 pM | B6 |
| 68.8 pM | B7 |
